# Measurements as given in IntAct's records for PubMed 11134024.
# B1: Numb-related protein 1 (Caenorhabditis elegans), Q9XTY6-1 (parent)
# chain: MSASQGNVFTRGLSRISRRKKKTKSIQNSLVSEQQPSFDAAIVPMPIPNDKSSIFSKGMDRLRRSLRLPKKRRDRSHDRHLSPDVTGGSKTEQWQPDEGAVRTGTCCFNVKYLGSVEVYESRGMQVCEGALKSLKASRRKPVKAVLYVSGDGLRVVDQGNSRGLLVDQTIEKVSFCAPDRQTDKGFAYICRDGASRRWMCHGFLATKETGERLSHAVGCAFSICLEKKKRRDEETAQVNVQSAQESTSSTPPKDIFHPNWEDNTSEGTSTQNPSNSRSNLAYQSFRKHVSIEDRYLDPQSVIINEVPASNHMDEIRRISKPRPTGNPALFLRQGSLRAPPDMPSSSDQFKRNMSLRTVSNNPTERSPEKKSFGTQLYNEPIYEGDEDPLGLGITPPVVTKTSGSLSNNGLDGINLNWKSIPAPVHQMQQHNANGDFVAAWPQNTIEKPTVGPLDKLQKQFEDIKLISISSGENTPTTRSKADEWLDDVLRVSMSMSPTSPSSDPPSTSSYSVLPKSGPPPAHAPPPLPVRQAVSNGSPSIYQQQLQQANSTRNSPAGINWNSSPNPMKISQPPAKPVDPFDVQWSRLAVNNTH
# partner: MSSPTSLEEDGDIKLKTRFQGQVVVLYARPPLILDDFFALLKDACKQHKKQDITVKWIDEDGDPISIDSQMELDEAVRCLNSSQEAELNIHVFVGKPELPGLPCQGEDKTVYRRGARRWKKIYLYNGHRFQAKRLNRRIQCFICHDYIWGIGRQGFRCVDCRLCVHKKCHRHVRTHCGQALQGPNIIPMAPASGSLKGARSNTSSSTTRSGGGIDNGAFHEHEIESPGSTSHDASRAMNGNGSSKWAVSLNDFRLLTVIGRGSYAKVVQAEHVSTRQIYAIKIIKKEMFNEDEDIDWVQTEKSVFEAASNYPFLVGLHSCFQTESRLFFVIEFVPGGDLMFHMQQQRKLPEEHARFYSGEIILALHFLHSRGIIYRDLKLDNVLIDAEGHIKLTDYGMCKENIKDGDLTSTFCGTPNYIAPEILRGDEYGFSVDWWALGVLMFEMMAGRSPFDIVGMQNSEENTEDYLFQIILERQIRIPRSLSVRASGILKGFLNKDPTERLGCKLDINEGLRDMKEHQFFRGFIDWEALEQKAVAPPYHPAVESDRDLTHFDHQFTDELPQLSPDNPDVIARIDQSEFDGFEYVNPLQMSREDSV
# Variants of: B1
# Conditions: with kpc3_caeel pkc-3, Q19266
row,effect of a mutation on the interaction,Variant
1,decreasing interaction,F175L
2,decreasing interaction,F221L

# Variants of: B1
# Conditions: with kpc3_caeel pkc-3, Q19266
# Remark: another data set of the same source
row,effect of a mutation on the interaction,Variant
1,decreasing interaction,F221L
